Experimental data taken from paper doi:10.1101/2022.06.13.495963 (bioRxiv, 2022).

Biological target: B-Myb negative regulatory domain, amino acids 440-600 (NRD^440-600) (human, UniProt P10244-1 440-600)
Experiment: ITC

B-Myb negative regulatory domain, amino acids 440-600 (NRD^440-600), sequence (P10244 440-600): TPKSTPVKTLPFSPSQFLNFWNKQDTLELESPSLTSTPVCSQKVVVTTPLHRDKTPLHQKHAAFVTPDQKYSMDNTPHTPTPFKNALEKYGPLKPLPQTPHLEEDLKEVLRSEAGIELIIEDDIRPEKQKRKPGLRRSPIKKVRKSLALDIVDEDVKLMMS

B1: B-Myb DNA binding domain (B-Myb^34-183) (domain or fragment)
chain: not shown
  Kd: 4.5 µM
